Test results reported in the nanobody polyreactivity screen of Harvey et al. (2022).

test: yeast display, Sf9 membrane polyspecificity reagent, FACS + sequencing; frameworks hold sequencing errors
Method in brief: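 A synthetic nanobody library was expressed on Saccharomyces cerevisiae BJ5465 by galactose induction for 36–48 hours. The library was stained for 1 hour at 4 °C with 10% biotinylated, detergent-solubilized Sf9 membrane reagent and enriched with streptavidin microbeads before FACS. Low and high (top ~1%) gates were set on anti-HA fluorescence for expression and streptavidin fluorescence for reagent binding, and each polyreactivity label reflects the gate of origin.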

| Sequence | polyreactivity (PSR sort gate) |
| --- | --- |
| QVQLVESGGGLVQAGGSLRLSCAASGRIFRLYAMGWYRQAPGKERELVAAISKSGGSTYYADSVKGRFTISRDNAKYTVYLQMNSLNPEDTAVYYCAADYRTHGGYVGTFDYWGQGTQVTVSS | low polyreactivity |
| QVQLVESGGGLVQAGGSLRLSCAASGRIFRLYVMGWYRQAPGKERELVARIRIRDSNTYYADSVKGRFTISRDNAKHTVYLQMNSLKPEDTAVYYCAVVATYVYSKYDYWGQGTQVTVSS | low polyreactivity |
| QVQLVESGGGLVQAGGSLRLSCAASGRIFRNAMGWYRQAPGKERELVAAISSGGSTNYADSVKGRFTISRDNAKNTVYLQMNSLKPEDTAVYYCAADWDWWYQEFDYWGQGTQVTVSS | high polyreactivity |
| QVQLVESGGGLVQAGGSLRLSCAASGRIFRNNAMGWYRQAPGKERELVAAITWSGGSTYYADSVKGRFTISRDNAKNTVYLQMNSLKPEDTAVYYCNAGRGYKYSYTYDYWGQGTQVTVSS | low polyreactivity |
| QVQLVESGGGLVQAGGSLRLSCAASGRIFRNYAMGWYRQAPGKERELVAAISSGGGSTYYADSVKGRFTISRDNAKNTVYLQMNSLKPEDTAVYYCNARYVYYGKFREYDYWGQGTQVTVSS | high polyreactivity |
| QVQLVESGGGLVQAGGSLRLSCAASGRIFRNYAMGWYRQAPGKERELVAAISTRSGSTYYADSVKGRFTISRDNAKNTVYLQMNSLKPEDTAVYYCNKVSVGRYYALYYWGQGTKVTVSS | high polyreactivity |
| QVQLVESGGGLVQAGGSLRLSCAASGRIFRNYGMGWYRQAPGKERELVATITWTGGSTFYADSVKGRFTISRDNAKNTVYLQMNSLKPEDTAVYYCAAEWHRLIYFSPRYDFDYWGQGTQVTVSS | low polyreactivity |
| QVQLVESGGGLVQAGGSLRLSCAASGRIFRPNAMGWYRPAPGKERELVAAISYSGATTYYADSVKGRFTISRDNAKNTVYLQMNSLKPEVTAVYYCAAGGTSGQEFGYWGQGTQVTVSS | low polyreactivity |
| QVQLVESGGGLVQAGGSLRLSCAASGRIFRRNAMGWYRQAPGKERELVAGIDSSGGSTYYADSVKGRFTISRDNAKNSVYLQMNSLKPEDTAVYYCNAVGYSQGYDYWGQGTQVTVSS | high polyreactivity |
| QVQLVESGGGLVQAGGSLRLSCAASGRIFRRYAMGWYRQAPGKEREFVAAISTSGGSTYYADSVKGRFTISRDNAKNTVYLQMNSLKPEDTAVYYCAKRFIYGRYNYWGQGTQVTVSS | high polyreactivity |
| QVQLVESGGGLVQAGGSLRLSCAASGRIFRRYAMGWYRQAPGKERELVAAISSRGGRTYYADSVKGRFTISRDNAKNTVYLQMNSLKPEETAVYYCNARSFRWCRWLRLPFNYWGQGTQVTVSS | high polyreactivity |
| QVQLVESGGGLVQAGGSLRLSCAASGRIFRRYAMGWYRQAPGKERELVAAISVTGGRTYYADSVKGRFTISRDNAKNTVYLQMNSLKPEDTAVYYCNTLQYQERYAYDYWGQGTQVTVSS | high polyreactivity |
| QVQLVESGGGLVQAGGSLRLSCAASGRIFRRYAMGWYRQAPGKERELVASISSGGSTNYADSVKGRFTISRDNAKNTVYLQMNSLKPEDTAVYYCAAAYPWQTRYSSPYYYWGQGTQVTVSS | high polyreactivity |
| QVQLVESGGGLVQAGGSLRLSCAASGRIFRSIAMGWYRQSPGKERELVAVINSDDSTYYADSVKGRFTISRDNAKNTVYLQMNSLKPEDTAVYYCAAEPQYTRHMDSWGQGTQVTVSS | low polyreactivity |
| QVQLVESGGGLVQAGGSLRLSCAASGRIFRSNAMGWYRQAPGKERELVATITRSGGSTYYADSVKGRFTISRDNAKNTVYLQMNSLKPEDTAVYYCNAVFGSAYRAQRIMGYWGQGTQVTVSS | high polyreactivity |
| QVQLVESGGGLVQAGGSLRLSCAASGRIFRSNAMGWYRQSPGKESELVAAITWRGRTYYADSVKGRFTISRDNAKNTVYLQMNSLKPEDTAVYYCNAYVRYGYDYWGHGTQVTVSS | high polyreactivity |
| QVQLVESGGGLVQAGGSLRLSCAASGRIFRSYVMGWYRQAPGKERELVAVISKNGGTTYYADSVKGRFTISRDNAKNTVYFQRNSLKPEDTAVYYCAARRLGYYRKVKELDYWGQGTQVTVSS | high polyreactivity |
| QVQLVESGGGLVQAGGSLRLSCAASGRIFRTNAMGWYRQAPGKEREFVAAISKDGGRTYYADSVKGRFTISRDNAKNTVYLQMNSLKPEDTAVYYCNVLVKHSTTTYSTYDYWGQGTQVTVSS | high polyreactivity |
| QVQLVESGGGLVQAGGSLRLSCAASGRIFRTYAMGWYRQAPGKERELVAAITWSGGSTYYADSVKGRFTISRDNAKNTVYLQMNSLKPEDTAVYYCNALTPGYRIYDYWGQGTQVTVSS | high polyreactivity |
| QVQLVESGGGLVQAGGSLRLSCAASGRIFRTYAMGWYRQAPGKERELVAGITWRGTSTYYADYVKGRFTISRDNAKNTVYLQLNSLKPEDTAVYYCAAEWKGYYVHDYWGQGTQVTVSS | high polyreactivity |
| QVQLVESGGGLVQAGGSLRLSCAASGRIFRVYAMGWYRQAPGKERELVAAIRWTGGSTYYADSVKGRFKISRDNAKNTVYLQMNSLKPEDTAVYYCAAGRYYSDGSRTIYDYWGQGTQVTVSS | low polyreactivity |
| QVQLVESGGGLVQAGGSLRLSCAASGRIFRVYTMGWYIQAPGKERELVAAISRGGTTTYADSVKGRFTISRDNAKNTVYLQMNSLKPEYTAVYYCNARGWFRGEFDYWGQGTQVTVSS | high polyreactivity |
| QVQLVESGGGLVQAGGSLRLSCAASGRIFRWYAMGWYRQAPGKERELVASISSGGSTNYADSVKGRFTISRDNAKNTVYLQLNSLKPEDTAVYYCAADFATPGPAYDYWGEGTQVTVSS | low polyreactivity |
| QVQLVESGGGLVQAGGSLRLSCAASGRIFRWYAMGWYRQAPGKERELVASITWNGGSTYYADSVKGRFTISRDNAKNTVYLQMNSLKPEDTAVYYCAVAFYRGPEMGYWGQGTQVTVSS | high polyreactivity |
| QVQLVESGGGLVQAGGSLRLSCAASGRIFRWYAMGWYRQAPGKERELVATITRSGGSTYCADSVKGRFTISRDNAKNTVYLQMNSLKPEDTAVYYCAARWRLTPSWLPYVQSSAGYDYWGQGTQVTVSS | high polyreactivity |
| QVQLVESGGGLVQAGGSLRLSCAASGRIFRWYPMGWYRQAPGKESELDATISSTGGSTYYADSVKGRFTISRDNAKNTVYIQMNSLKPEVTAVYYCNAVVYGIFLYAWYDYWGQGTQVTVSS | low polyreactivity |
| QVQLVESGGGLVQAGGSLRLSCAASGRIFRWYTMGWYRQAPGKEREFVAAITWSDTSTSYADSVKGPFTISRDNAKNTVYLQMNSLKPEDTAVYYCAAPTHLHGHGNQNEFYYWGQGTQVTVSS | low polyreactivity |
| QVQLVESGGGLVQAGGSLRLSCAASGRIFRYNAMGWYRQAPGKERELVAAISQSGGSTYYADSVKGRFTISRDNAMNTVYLQMNSLKPEDTAVYYCGADNYFLGDEDYWGQGTQGTVSS | high polyreactivity |
| QVQLVESGGGLVQAGGSLRLSCAASGRIFRYNAMGWYRQAPGKERELVAAISRGGSSTYYADSVKGRFTISRDNAKNTVYLQMNSLKPEDTAVYYCNARSVVREFNYWGQGTQVTVSS | high polyreactivity |
| QVQLVESGGGLVQAGGSLRLSCAASGRIFRYNAMGWYRQAPGKERELVAAISWSGGSTYYADSVKGRFTISRDNAKNTVYLQMNSLKPEDTAVYYCNARYRYSVTGYDYWGQGTQVTVSS | high polyreactivity |
